The supplement of paper PMC9112550, “Optimization of the antimicrobial peptide Bac7 by deep mutational scanning” (BMC Biology, 2022)

Test system: Escherichia coli TOP10
Test: shrunken log2 fold change of peptide-encoding DNA abundance (4.5 h post-induction vs induction); higher = less antimicrobial activity (less host growth inhibition)
Settings: time post-induction: 4.5 h; library: site-saturation at positions 5, 18, 19, 20
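Also: peptides expressed intracellularly from a pBAD plasmid library in pooled LB shake-flask culture, induced with 0.3% L-arabinose, DNA abundance read by NGS, three biological replicates, DESeq2 with apeglm shrinkage.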

Sequence	shrunken log2 fold change
RRIRGRPPRLPRPRPRPVHGPRP	-0.244
RRIRGRPPRLPRPRPRPVIEPRP	0.599
RRIRGRPPRLPRPRPRPVKAPRP	0.659
RRIRGRPPRLPRPRPRPVKSPRP	0.0201
RRIRGRPPRLPRPRPRPVLEPRP	0.795
RRIRGRPPRLPRPRPRPVLRPRP	0.656
RRIRGRPPRLPRPRPRPVMDPRP	0.96
RRIRGRPPRLPRPRPRPVMLPRP	0.317
RRIRGRPPRLPRPRPRPVPLPRP	0.13
RRIRGRPPRLPRPRPRPVRHPRP	0.496
RRIRGRPPRLPRPRPRPVSCPRP	0.885
RRIRGRPPRLPRPRPRPVTIPRP	0.0068
RRIRGRPPRLPRPRPRPVVCPRP	0.812
RRIRGRPPRLPRPRPRPVVPPRP	0.338
RRIRGRPPRLPRPRPRPVWQPRP	0.174
RRIRGRPPRLPRPRPRPVYCPRP	0.0683
RRIRGRPPRLPRPRPRPVYHPRP	-0.174
RRIRGRPPRLPRPRPRPWAFPRP	0.488
RRIRGRPPRLPRPRPRPWAQPRP	-0.035
RRIRGRPPRLPRPRPRPWARPRP	0.241
RRIRGRPPRLPRPRPRPWDSPRP	-0.479
RRIRGRPPRLPRPRPRPWECPRP	-0.00149
RRIRGRPPRLPRPRPRPWFYPRP	-0.4
RRIRGRPPRLPRPRPRPWGHPRP	0.152
RRIRGRPPRLPRPRPRPWHHPRP	-0.26

Sequence	shrunken log2 fold change
RRIRGRPPRLPRPRPRPWINPRP	-0.137
RRIRGRPPRLPRPRPRPWKKPRP	-0.00973
RRIRGRPPRLPRPRPRPWKYPRP	-0.115
RRIRGRPPRLPRPRPRPWMFPRP	0.0448
RRIRGRPPRLPRPRPRPWMQPRP	-0.539
RRIRGRPPRLPRPRPRPWRPPRP	0.376
RRIRGRPPRLPRPRPRPWSLPRP	0.094
RRIRGRPPRLPRPRPRPWSQPRP	0.142
RRIRGRPPRLPRPRPRPWTAPRP	0.172
RRIRGRPPRLPRPRPRPWTLPRP	0.161
RRIRGRPPRLPRPRPRPWTWPRP	0.339
RRIRGRPPRLPRPRPRPWVQPRP	0.0601
RRIRGRPPRLPRPRPRPWWKPRP	0.0639
RRIRGRPPRLPRPRPRPWWPPRP	0.404
RRIRGRPPRLPRPRPRPYAGPRP	-0.0412
RRIRGRPPRLPRPRPRPYCMPRP	-0.148
RRIRGRPPRLPRPRPRPYDKPRP	-0.147
RRIRGRPPRLPRPRPRPYDWPRP	0.0669
RRIRGRPPRLPRPRPRPYDYPRP	-0.15
RRIRGRPPRLPRPRPRPYEGPRP	-0.199
RRIRGRPPRLPRPRPRPYEHPRP	0.256
RRIRGRPPRLPRPRPRPYESPRP	0.133
RRIRGRPPRLPRPRPRPYEVPRP	0.0996
RRIRGRPPRLPRPRPRPYFNPRP	-0.439
RRIRGRPPRLPRPRPRPYFPPRP	-0.37

Sequence	shrunken log2 fold change
RRIRGRPPRLPRPRPRPYGDPRP	-0.176
RRIRGRPPRLPRPRPRPYGPPRP	0.0138
RRIRGRPPRLPRPRPRPYHFPRP	-0.041
RRIRGRPPRLPRPRPRPYHYPRP	-0.149
RRIRGRPPRLPRPRPRPYICPRP	-0.423
RRIRGRPPRLPRPRPRPYIFPRP	-0.135
RRIRGRPPRLPRPRPRPYIPPRP	-0.801
RRIRGRPPRLPRPRPRPYIWPRP	-0.107
RRIRGRPPRLPRPRPRPYKGPRP	-0.236
RRIRGRPPRLPRPRPRPYLDPRP	0.0767
RRIRGRPPRLPRPRPRPYLWPRP	0.146
RRIRGRPPRLPRPRPRPYPDPRP	0.201
RRIRGRPPRLPRPRPRPYPFPRP	-0.164
RRIRGRPPRLPRPRPRPYPLPRP	-0.236
RRIRGRPPRLPRPRPRPYQRPRP	0.189
RRIRGRPPRLPRPRPRPYQSPRP	0.00308
RRIRGRPPRLPRPRPRPYSKPRP	-0.2
RRIRGRPPRLPRPRPRPYYDPRP	-0.294
RRIRHRPPRLPRPRPRPAAAPRP	0.443
RRIRHRPPRLPRPRPRPAAKPRP	0.218
RRIRHRPPRLPRPRPRPACCPRP	-0.0888
RRIRHRPPRLPRPRPRPADFPRP	0.116
RRIRHRPPRLPRPRPRPAECPRP	-0.696
RRIRHRPPRLPRPRPRPAFPPRP	0.46
RRIRHRPPRLPRPRPRPAGTPRP	-0.04

Sequence	shrunken log2 fold change
RRIRHRPPRLPRPRPRPAGWPRP	0.449
RRIRHRPPRLPRPRPRPAKHPRP	-0.0767
RRIRHRPPRLPRPRPRPAMAPRP	0.126
RRIRHRPPRLPRPRPRPAMFPRP	0.0207
RRIRHRPPRLPRPRPRPAMNPRP	-0.0974
RRIRHRPPRLPRPRPRPAQLPRP	-0.3
RRIRHRPPRLPRPRPRPAQPPRP	0.1
RRIRHRPPRLPRPRPRPASCPRP	-0.5
RRIRHRPPRLPRPRPRPASIPRP	-0.164
RRIRHRPPRLPRPRPRPASMPRP	0.0822
RRIRHRPPRLPRPRPRPAVKPRP	-0.0915
RRIRHRPPRLPRPRPRPAWCPRP	0.081
RRIRHRPPRLPRPRPRPAWHPRP	-0.132
RRIRHRPPRLPRPRPRPAWSPRP	-0.0185
RRIRHRPPRLPRPRPRPCAAPRP	-0.195
RRIRHRPPRLPRPRPRPCAFPRP	-0.176
RRIRHRPPRLPRPRPRPCAMPRP	-0.257
RRIRHRPPRLPRPRPRPCAQPRP	0.000337
RRIRHRPPRLPRPRPRPCDMPRP	-0.302
RRIRHRPPRLPRPRPRPCEFPRP	-0.324
RRIRHRPPRLPRPRPRPCFTPRP	-0.838
RRIRHRPPRLPRPRPRPCGNPRP	-0.196
RRIRHRPPRLPRPRPRPCKAPRP	-0.0317
RRIRHRPPRLPRPRPRPCMFPRP	-0.995
RRIRHRPPRLPRPRPRPCMHPRP	-0.38

Sequence	shrunken log2 fold change
RRIRHRPPRLPRPRPRPCMVPRP	-0.342
RRIRHRPPRLPRPRPRPCNGPRP	-0.00865
RRIRHRPPRLPRPRPRPCQHPRP	-0.214
RRIRHRPPRLPRPRPRPCQTPRP	-0.0148
RRIRHRPPRLPRPRPRPCRTPRP	0.00884
RRIRHRPPRLPRPRPRPCSGPRP	-0.0968
RRIRHRPPRLPRPRPRPCTRPRP	0.0237
RRIRHRPPRLPRPRPRPCVYPRP	-0.62
RRIRHRPPRLPRPRPRPCWNPRP	-0.151
RRIRHRPPRLPRPRPRPCWPPRP	-0.106
RRIRHRPPRLPRPRPRPCYGPRP	-0.238
RRIRHRPPRLPRPRPRPCYPPRP	-0.384
RRIRHRPPRLPRPRPRPDCDPRP	-0.243
RRIRHRPPRLPRPRPRPDEVPRP	-0.00134
RRIRHRPPRLPRPRPRPDFCPRP	-0.0801
RRIRHRPPRLPRPRPRPDFIPRP	-0.391
RRIRHRPPRLPRPRPRPDGAPRP	-0.0729
RRIRHRPPRLPRPRPRPDGWPRP	0.191
RRIRHRPPRLPRPRPRPDHCPRP	0.0278
RRIRHRPPRLPRPRPRPDIEPRP	0.0242
RRIRHRPPRLPRPRPRPDIGPRP	0.0697
RRIRHRPPRLPRPRPRPDIMPRP	-0.261
RRIRHRPPRLPRPRPRPDISPRP	-0.278
RRIRHRPPRLPRPRPRPDKEPRP	-0.00149
RRIRHRPPRLPRPRPRPDKKPRP	-0.0244

Sequence	shrunken log2 fold change
RRIRHRPPRLPRPRPRPDLIPRP	-0.0224
RRIRHRPPRLPRPRPRPDMGPRP	0.00739
RRIRHRPPRLPRPRPRPDNIPRP	-0.207
RRIRHRPPRLPRPRPRPDNVPRP	-0.02
RRIRHRPPRLPRPRPRPDPTPRP	-0.0262
RRIRHRPPRLPRPRPRPDPYPRP	-0.126
RRIRHRPPRLPRPRPRPDQCPRP	-0.000823
RRIRHRPPRLPRPRPRPDQEPRP	-0.01
RRIRHRPPRLPRPRPRPDQYPRP	0.0188
RRIRHRPPRLPRPRPRPDRAPRP	0.217
RRIRHRPPRLPRPRPRPDRDPRP	-0.0136
RRIRHRPPRLPRPRPRPDSCPRP	-0.164
RRIRHRPPRLPRPRPRPDSKPRP	-0.362
RRIRHRPPRLPRPRPRPDSWPRP	-0.0468
RRIRHRPPRLPRPRPRPDTLPRP	0.00779
RRIRHRPPRLPRPRPRPDVKPRP	-0.0186
RRIRHRPPRLPRPRPRPDYKPRP	0.00107
RRIRHRPPRLPRPRPRPDYNPRP	-0.901
RRIRHRPPRLPRPRPRPDYVPRP	-0.165
RRIRHRPPRLPRPRPRPEALPRP	-0.0062
RRIRHRPPRLPRPRPRPECAPRP	0.249
RRIRHRPPRLPRPRPRPECTPRP	0.154
RRIRHRPPRLPRPRPRPEERPRP	-0.0858
RRIRHRPPRLPRPRPRPEFLPRP	-0.0472
RRIRHRPPRLPRPRPRPEHLPRP	0.0981
